The supplement of paper PMC10065799, “High-throughput profiling of sequence recognition by tyrosine kinases and SH2 domains using bacterial peptide display” (eLife, 2023)

Tests used:
AncSZ = test: phosphorylation enrichment, bacterial display (enrichment ratio); higher = better substrate or ligand; peptides without Tyr show the background
EPHB1 = EPHB1 (UniProt P54762); test: as above
EPHB2 = EPHB2 (UniProt P29323); test: as above
FGFR1 = FGFR1 (UniProt P11362); test: as above
FGFR3 = FGFR3 (UniProt P22607); test: as above
Fer (mouse) = test: as above
Fes = Fes (UniProt P07332); test: as above
Fyn = Fyn (UniProt P06241); test: as above
Hck = Hck (UniProt P08631); test: as above
Jak2 = Jak2 (UniProt O60674); test: as above
MERTK = MERTK (UniProt Q12866); test: as above
c-Abl (mouse) = test: as above
c-Src = test: as above
Grb2 SH2 = Grb2 SH2 (UniProt P62993); test: SH2 binding enrichment of the phosphorylated peptide, bacterial display (enrichment ratio); higher = better substrate or ligand; peptides without Tyr show the background
SHP2-C SH2 = test: as above
c-Src SH2 = test: as above
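Wherever SH2 binding enrichment of the phosphorylated peptide, bacterial display is given: peptide library displayed on the E. coli surface as eCPX fusions, selected cells deep-sequenced, score is each peptide's frequency after selection divided by its frequency in the input.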
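Wherever phosphorylation enrichment, bacterial display is given: 11-residue human phosphosite peptides and single-mutation variants displayed on the E. coli surface, counted by deep sequencing, each peptide's frequency after selection divided by its frequency in the unselected input library; frequency after pTyr selection over input frequency; kinase dosed for 20-30% of maximal phosphorylation in three min.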

EPHB1, sequence (P54762 whole entry, looked up): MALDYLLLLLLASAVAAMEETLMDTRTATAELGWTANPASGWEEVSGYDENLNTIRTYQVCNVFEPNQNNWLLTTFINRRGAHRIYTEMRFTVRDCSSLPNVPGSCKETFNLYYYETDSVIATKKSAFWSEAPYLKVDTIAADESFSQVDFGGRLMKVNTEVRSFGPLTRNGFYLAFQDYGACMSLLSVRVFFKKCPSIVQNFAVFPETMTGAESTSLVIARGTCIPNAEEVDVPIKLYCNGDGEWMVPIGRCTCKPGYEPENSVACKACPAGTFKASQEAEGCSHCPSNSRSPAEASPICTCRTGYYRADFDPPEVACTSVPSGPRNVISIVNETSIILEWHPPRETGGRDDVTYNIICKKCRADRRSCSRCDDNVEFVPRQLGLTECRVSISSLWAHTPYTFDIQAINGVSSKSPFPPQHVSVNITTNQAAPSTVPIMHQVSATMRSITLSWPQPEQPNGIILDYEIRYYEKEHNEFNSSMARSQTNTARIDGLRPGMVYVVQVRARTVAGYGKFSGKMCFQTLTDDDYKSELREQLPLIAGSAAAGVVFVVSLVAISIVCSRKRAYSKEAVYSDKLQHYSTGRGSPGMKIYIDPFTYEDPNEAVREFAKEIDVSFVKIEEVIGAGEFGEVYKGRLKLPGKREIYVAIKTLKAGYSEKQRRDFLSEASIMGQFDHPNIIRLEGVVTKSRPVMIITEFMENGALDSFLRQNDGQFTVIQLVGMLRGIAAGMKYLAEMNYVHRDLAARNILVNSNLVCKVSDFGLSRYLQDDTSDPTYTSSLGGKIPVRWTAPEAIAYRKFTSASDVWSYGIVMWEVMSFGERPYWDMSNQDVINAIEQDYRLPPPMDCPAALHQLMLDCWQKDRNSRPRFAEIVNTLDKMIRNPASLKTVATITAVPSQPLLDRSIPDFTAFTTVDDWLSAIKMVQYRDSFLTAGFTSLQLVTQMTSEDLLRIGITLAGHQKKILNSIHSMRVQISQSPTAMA
MERTK, sequence (Q12866 whole entry, looked up): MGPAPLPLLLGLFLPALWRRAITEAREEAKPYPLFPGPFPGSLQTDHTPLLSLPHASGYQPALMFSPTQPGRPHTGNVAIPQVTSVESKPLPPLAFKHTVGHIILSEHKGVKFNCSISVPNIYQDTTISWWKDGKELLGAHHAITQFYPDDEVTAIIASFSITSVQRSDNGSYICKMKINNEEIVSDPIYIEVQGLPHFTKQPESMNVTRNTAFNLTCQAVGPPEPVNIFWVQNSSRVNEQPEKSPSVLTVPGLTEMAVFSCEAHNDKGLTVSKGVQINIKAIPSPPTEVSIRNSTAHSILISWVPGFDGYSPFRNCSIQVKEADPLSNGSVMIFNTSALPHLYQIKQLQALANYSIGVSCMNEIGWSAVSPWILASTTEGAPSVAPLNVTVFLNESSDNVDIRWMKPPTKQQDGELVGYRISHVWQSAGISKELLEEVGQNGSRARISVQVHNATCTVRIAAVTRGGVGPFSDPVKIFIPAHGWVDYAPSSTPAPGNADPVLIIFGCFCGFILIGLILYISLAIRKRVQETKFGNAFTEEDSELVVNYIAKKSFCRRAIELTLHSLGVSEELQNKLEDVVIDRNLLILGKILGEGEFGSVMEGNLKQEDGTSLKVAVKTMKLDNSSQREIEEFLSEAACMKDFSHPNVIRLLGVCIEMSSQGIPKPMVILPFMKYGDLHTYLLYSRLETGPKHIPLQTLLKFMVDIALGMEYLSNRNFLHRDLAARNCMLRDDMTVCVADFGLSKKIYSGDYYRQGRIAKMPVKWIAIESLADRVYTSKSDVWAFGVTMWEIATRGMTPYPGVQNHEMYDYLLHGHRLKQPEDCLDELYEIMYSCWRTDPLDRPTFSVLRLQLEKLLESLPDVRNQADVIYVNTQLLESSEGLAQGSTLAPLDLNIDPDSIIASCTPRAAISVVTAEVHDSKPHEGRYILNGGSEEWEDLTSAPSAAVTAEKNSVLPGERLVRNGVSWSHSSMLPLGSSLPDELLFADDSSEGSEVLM
Fes, sequence (P07332 whole entry, looked up): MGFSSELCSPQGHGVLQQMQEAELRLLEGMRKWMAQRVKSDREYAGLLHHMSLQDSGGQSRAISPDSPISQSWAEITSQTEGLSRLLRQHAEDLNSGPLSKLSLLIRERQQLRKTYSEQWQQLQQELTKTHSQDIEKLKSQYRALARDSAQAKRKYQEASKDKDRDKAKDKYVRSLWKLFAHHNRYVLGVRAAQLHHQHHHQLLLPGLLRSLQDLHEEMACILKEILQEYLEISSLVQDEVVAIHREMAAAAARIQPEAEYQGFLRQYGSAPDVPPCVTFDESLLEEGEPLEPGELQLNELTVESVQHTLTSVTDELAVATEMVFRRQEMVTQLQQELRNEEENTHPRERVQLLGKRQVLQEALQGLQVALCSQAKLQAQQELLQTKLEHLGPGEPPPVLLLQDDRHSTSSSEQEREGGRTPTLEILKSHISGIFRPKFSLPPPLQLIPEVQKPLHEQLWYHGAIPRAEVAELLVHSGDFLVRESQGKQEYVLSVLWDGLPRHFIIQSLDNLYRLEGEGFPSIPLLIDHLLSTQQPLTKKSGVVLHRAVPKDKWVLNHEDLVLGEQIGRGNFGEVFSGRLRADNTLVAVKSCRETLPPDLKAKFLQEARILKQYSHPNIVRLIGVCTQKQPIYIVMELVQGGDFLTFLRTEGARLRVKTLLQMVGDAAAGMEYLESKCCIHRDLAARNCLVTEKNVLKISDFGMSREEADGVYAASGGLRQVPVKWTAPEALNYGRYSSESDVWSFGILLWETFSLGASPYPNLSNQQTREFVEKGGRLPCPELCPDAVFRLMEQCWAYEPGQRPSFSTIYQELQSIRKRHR
FGFR1, sequence (P11362 whole entry, looked up): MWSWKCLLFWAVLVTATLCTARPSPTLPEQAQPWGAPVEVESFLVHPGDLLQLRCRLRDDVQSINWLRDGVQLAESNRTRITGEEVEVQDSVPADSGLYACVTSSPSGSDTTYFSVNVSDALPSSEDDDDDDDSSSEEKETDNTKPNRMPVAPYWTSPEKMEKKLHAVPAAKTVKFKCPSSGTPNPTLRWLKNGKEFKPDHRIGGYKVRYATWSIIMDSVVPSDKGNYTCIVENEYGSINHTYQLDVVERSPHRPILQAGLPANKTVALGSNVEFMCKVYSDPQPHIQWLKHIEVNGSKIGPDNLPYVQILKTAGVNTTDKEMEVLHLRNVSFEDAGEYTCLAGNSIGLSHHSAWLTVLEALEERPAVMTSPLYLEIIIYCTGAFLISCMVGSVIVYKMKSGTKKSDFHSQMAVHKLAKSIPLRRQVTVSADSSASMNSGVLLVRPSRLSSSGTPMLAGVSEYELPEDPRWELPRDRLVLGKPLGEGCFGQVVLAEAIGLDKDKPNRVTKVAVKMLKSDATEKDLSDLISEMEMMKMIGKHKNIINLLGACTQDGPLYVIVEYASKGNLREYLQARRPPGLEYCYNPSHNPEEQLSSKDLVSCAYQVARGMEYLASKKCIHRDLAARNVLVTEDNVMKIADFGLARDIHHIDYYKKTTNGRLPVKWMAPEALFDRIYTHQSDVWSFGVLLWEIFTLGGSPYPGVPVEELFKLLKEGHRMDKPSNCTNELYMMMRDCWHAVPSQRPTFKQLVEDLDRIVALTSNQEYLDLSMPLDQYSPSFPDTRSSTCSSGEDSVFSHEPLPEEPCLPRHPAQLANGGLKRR
FGFR3, sequence (P22607 whole entry, looked up): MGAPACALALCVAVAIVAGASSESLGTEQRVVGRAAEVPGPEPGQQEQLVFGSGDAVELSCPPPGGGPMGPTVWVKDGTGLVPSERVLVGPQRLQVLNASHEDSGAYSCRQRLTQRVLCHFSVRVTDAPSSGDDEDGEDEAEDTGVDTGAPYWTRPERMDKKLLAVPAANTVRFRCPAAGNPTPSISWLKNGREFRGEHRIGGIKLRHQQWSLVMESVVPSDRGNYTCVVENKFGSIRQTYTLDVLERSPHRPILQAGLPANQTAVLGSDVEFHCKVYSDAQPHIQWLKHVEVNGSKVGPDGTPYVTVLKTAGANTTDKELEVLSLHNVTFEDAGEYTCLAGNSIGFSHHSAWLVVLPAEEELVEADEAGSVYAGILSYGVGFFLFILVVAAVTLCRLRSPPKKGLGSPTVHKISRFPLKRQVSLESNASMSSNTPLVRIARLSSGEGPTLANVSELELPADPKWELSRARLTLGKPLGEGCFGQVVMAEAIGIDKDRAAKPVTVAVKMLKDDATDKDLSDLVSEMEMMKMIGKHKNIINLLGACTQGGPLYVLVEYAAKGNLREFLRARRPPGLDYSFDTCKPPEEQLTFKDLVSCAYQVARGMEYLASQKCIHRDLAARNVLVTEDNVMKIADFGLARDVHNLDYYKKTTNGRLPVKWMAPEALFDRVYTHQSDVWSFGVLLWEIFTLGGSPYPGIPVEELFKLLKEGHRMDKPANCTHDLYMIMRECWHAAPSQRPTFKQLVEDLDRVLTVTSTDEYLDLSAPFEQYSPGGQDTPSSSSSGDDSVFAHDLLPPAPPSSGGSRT
Fyn, sequence (P06241 whole entry, looked up): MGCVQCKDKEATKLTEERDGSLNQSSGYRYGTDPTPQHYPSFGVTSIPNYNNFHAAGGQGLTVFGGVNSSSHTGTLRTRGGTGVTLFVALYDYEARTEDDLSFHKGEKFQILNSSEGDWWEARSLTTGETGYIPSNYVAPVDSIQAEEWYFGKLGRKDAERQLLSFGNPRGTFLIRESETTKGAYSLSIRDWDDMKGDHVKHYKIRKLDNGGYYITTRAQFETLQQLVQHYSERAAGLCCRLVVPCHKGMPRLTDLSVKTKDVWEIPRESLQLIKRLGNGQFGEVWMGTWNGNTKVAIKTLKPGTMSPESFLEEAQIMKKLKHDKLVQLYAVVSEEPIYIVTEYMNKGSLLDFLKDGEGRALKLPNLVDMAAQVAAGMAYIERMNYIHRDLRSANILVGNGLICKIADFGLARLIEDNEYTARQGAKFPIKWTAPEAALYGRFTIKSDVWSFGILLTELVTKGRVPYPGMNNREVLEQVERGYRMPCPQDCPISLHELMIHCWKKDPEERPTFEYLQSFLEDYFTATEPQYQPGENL

| Sequence | SH2 binding enrichment (Grb2 SH2) | SH2 binding enrichment (SHP2-C SH2) | SH2 binding enrichment (c-Src SH2) | phosphorylation enrichment (AncSZ) | phosphorylation enrichment (EPHB1) | phosphorylation enrichment (EPHB2) | phosphorylation enrichment (FGFR1) | phosphorylation enrichment (FGFR3) | phosphorylation enrichment (Fer (mouse)) | phosphorylation enrichment (Fes) | phosphorylation enrichment (Fyn) | phosphorylation enrichment (Hck) | phosphorylation enrichment (Jak2) | phosphorylation enrichment (MERTK) | phosphorylation enrichment (c-Abl (mouse)) | phosphorylation enrichment (c-Src) |
| --- | --- | --- | --- | --- | --- | --- | --- | --- | --- | --- | --- | --- | --- | --- | --- | --- |
| SWKRRYFLLWA [APBB1IP_Y331_R335W] | 0.684 | 0.646 | 0.428 | 0.686 | 0.443 | 0.5 | 0.479 | 0.545 | 0.433 | 0.591 | 0.576 | 0.497 | 0.571 | 0.59 | 0.478 | 0.661 |
| SWSTSYSGFRC [NKAPL_Y91_Y96C_YF] | 0.87 | 0.57 | 0.43 | 0.985 | 0.616 | 0.597 | 0.528 | 0.763 | 0.531 | 1.1 | 0.643 | 0.642 | 0.877 | 0.424 | 0.761 | 0.972 |
| SYDLDYDSVQP [MYC_Y16_N11S] | 0.804 | 0.633 | 1.19 | 2.5 | 1.03 | 1.73 | 0.589 | 0.862 | 0.995 | 1.21 | 0.723 | 0.762 | 1.04 | 0.443 | 0.741 | 0.796 |
| TAALWYIFSHT [ENG_Y612_YF] | 1.02 | 0.785 | 0.713 | 1.26 | 0.733 | 0.593 | 0.543 | 1.03 | 0.496 | 1.5 | 0.514 | 0.536 | 1.36 | 0.491 | 1.19 | 0.722 |
| TARWEYMHSPS [CPOX_Y429] | 1.25 | 0.778 | 0.688 | 0.927 | 0.965 | 0.624 | 0.536 | 0.69 | 0.334 | 2.01 | 0.387 | 0.356 | 1.23 | 1.08 | 0.363 | 1.14 |
| TDTAAYEERVR [SPTB_Y474] | 0.937 | 0.677 | 0.672 | 0.931 | 0.692 | 0.767 | 0.581 | 0.494 | 0.407 | 1.25 | 0.795 | 0.686 | 1.9 | 1.2 | 1.2 | 0.753 |
| TFGVVYKARNK [CDK2_Y19_YF] | 0.801 | 0.671 | 0.495 | 0.928 | 0.439 | 0.518 | 0.587 | 0.694 | 0.481 | 0.917 | 0.422 | 0.39 | 0.805 | 0.321 | 0.565 | 0.346 |
| TFRPPYYHRNC [HGD_Y333] | 1.38 | 1.86 | 1.18 | 0.721 | 0.506 | 0.474 | 0.497 | 0.486 | 0.375 | 0.878 | 0.562 | 0.524 | 0.686 | 0.498 | 0.599 | 0.559 |

The next lines start with results.

| SH2 binding enrichment (Grb2 SH2) | SH2 binding enrichment (SHP2-C SH2) | SH2 binding enrichment (c-Src SH2) | Sequence | phosphorylation enrichment (AncSZ) | phosphorylation enrichment (EPHB1) | phosphorylation enrichment (EPHB2) | phosphorylation enrichment (FGFR1) | phosphorylation enrichment (FGFR3) | phosphorylation enrichment (Fer (mouse)) | phosphorylation enrichment (Fes) | phosphorylation enrichment (Fyn) | phosphorylation enrichment (Hck) | phosphorylation enrichment (Jak2) | phosphorylation enrichment (MERTK) | phosphorylation enrichment (c-Abl (mouse)) | phosphorylation enrichment (c-Src) |
| --- | --- | --- | --- | --- | --- | --- | --- | --- | --- | --- | --- | --- | --- | --- | --- | --- |
| 0.627 | 0.494 | 0.473 | SVTCTFSPALN [TP53_Y126_Y126F] | 2.01 | 0.845 | 0.675 | 0.602 | 1.03 | 0.673 | 1.89 | 0.562 | 0.621 | 1.74 | 0.515 | 1.19 | 0.541 |
| 0.767 | 0.603 | 0.482 | SVTCTSSPALN [TP53_Y126_Y126S] | 1.3 | 0.626 | 0.675 | 0.476 | 0.863 | 0.538 | 1.34 | 0.562 | 0.526 | 1.18 | 0.436 | 0.856 | 0.47 |
| 0.817 | 0.5 | 0.435 | SVTCTYSPAIN [TP53_Y126_L130I] | 1.5 | 1 | 0.735 | 0.702 | 1.1 | 0.743 | 1.83 | 0.615 | 0.749 | 1.37 | 0.466 | 1.08 | 0.684 |
| 0.659 | 0.663 | 0.349 | SVTCTYSPALI [TP53_Y126_N131I] | 1.64 | 0.906 | 0.779 | 0.534 | 0.954 | 1.09 | 1.8 | 0.646 | 0.804 | 1.52 | 0.602 | 1.13 | 0.817 |
| 0.903 | 0.59 | 0.762 | SVVAPYEPPEV [TP53_Y220_V218A] | 1.34 | 0.629 | 0.617 | 0.528 | 0.753 | 0.578 | 1.48 | 0.67 | 0.624 | 1.1 | 0.629 | 1.08 | 0.672 |
| 0.807 | 0.537 | 0.469 | SVVVPFEPPEV [TP53_Y220_Y220F] | 1.04 | 0.578 | 0.628 | 0.533 | 0.668 | 0.467 | 1.22 | 0.41 | 0.502 | 1.06 | 0.39 | 0.866 | 0.552 |
| 0.753 | 0.593 | 0.432 | TENAGYFFRIS | 1.52 | 0.733 | 0.703 | 0.511 | 0.868 | 0.487 | 1.42 | 0.511 | 0.548 | 1.46 | 0.388 | 0.925 | 0.514 |
| 0.761 | 0.864 | 0.846 | TFLRTYTDAMQ [TSPAN7_Y124] | 0.791 | 0.51 | 0.488 | 0.438 | 0.548 | 0.379 | 0.813 | 0.396 | 0.506 | 0.726 | 0.37 | 0.552 | 0.413 |
